In PMC7990167, “An antibody targeting type III secretion system induces broad protection against Salmonella and Shigella infections” (PLoS Neglected Tropical Diseases, 2021) one finds Kd data, which are given here for one molecule.

“And” between values parts separate entries of the source, which are not always exact repeats. Equal values may be shown once.

In the experiment the target is T1, IpaD (wild type, Shigella flexneri) expressed on the surface of yeast cells (Shigella flexneri, gene synthesized …, UniProt P18013).
T1 construct: IpaD of Shigella flexneri; also called wild-type IpaD; needle tip protein of the Shigella type III secretion system
T1 sequence (P18013 whole entry): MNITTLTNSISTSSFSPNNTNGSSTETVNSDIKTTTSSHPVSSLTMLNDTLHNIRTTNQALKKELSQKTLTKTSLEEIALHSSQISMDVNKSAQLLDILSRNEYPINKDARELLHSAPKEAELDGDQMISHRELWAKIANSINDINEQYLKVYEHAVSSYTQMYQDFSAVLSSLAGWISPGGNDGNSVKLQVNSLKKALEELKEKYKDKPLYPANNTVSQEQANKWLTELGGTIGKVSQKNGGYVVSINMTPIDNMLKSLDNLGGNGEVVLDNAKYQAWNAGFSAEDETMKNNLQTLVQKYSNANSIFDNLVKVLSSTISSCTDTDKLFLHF
Kind of experiment: flow cytometry on cells; wild-type IpaD on the surface of yeast cells, increasing concentrations of the VHH, fluorescence by FACS; apparent KD, one site-specific binding model (PRISM). The settings on record: one partner purified. A general note: Flow cytometry measures light scatter and fluorescence of single cells or particles in a stream.

B1: VHH-20ipaD (VHH)
VHH: QVQLVESGGGLVQAGGSLRLSCAVSGLEMQSHAIGWFRQAPGKEREGVSCINDDGSTTRYADSVKGRFTISRDNAKNTVYLQMNSLKPEDTAVYFCAAKSVWFCSVIRSHEFNSWGQGTQVTVSS
notes: the VHH chain is in the complex IpaD/VHH-20ipaD, PDB 5VXM; Monomeric fractions of the gel filtration were pooled; source: E. coli BL21, purified (TEV cleavage, HisTrap flow-through, gel filtration)
Take B1: the Kd was 1.16 nM and 1.15 nM.
